Like-named read-outs stand apart in the source and are kept apart here. No end group written: not given here.
B1: RVS167 SH3 domain (protein)
chain: PGVETVTALYDYQAQAAGDLSFPAGAVIEIVQRTPDVNEWWTGRYNGQQGVFPGNYVQLNKN

Assays:
Assay in all cases: SPR
YPR171 peptide = target: YPR171 peptide
GST-Abp1 SH3 domain [1] = target: T1, GST-Abp1 SH3 domain (S. cerevisiae, UniProt P15891 532-592)
T1 chain: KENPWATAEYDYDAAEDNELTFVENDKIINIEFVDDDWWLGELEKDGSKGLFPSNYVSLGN

RVS167 SH3 domain = target: B1
GST-Abp1 SH3 domain [2] = target: T1, GST-Abp1 SH3 domain
YJR083C peptide = target: YJR083C peptide
YMR192 peptide = target: YMR192 peptide

B1 gave a Kd (YPR171 peptide) of 16 µM.

B2: Ark1 peptide(s) on the Abp1 SPOT membrane (peptide)
chain: SKDKKTKPTPPPKP
modifications: also: bound to cellulose membrane (SPOT)
Work on B2 yielded a Kd (GST-Abp1 SH3 domain [1]) of 24 µM, a Kd (RVS167 SH3 domain) of over 100 µM and a Kd (GST-Abp1 SH3 domain [2]) of 24 µM.

B3: BOI2 SH3 domain (protein)
chain: GNFPMYIAINEYFKRMEDELDMKPGDKIKVITDDEEYKDGWYFGRNLRTNEEGLYPVVFTQKITV
Work on B3 yielded a Kd (YJR083C peptide) of over 100 µM, a Kd (YPR171 peptide) of over 100 µM and a Kd (YMR192 peptide) of over 100 µM.

B4: Srv2 peptide(s) on the Abp1 SPOT membrane (peptide)
chain: PPPRPKKP
modifications: also: bound to cellulose membrane
Work on B4 yielded a Kd (GST-Abp1 SH3 domain [1]) of 75 µM and a Kd (GST-Abp1 SH3 domain [2]) of 75 µM.

B5: Yir003w peptide(s) on the Abp1 SPOT membrane (peptide)
chain: RPKRRAPPPVPKKP
modifications: also: bound to cellulose SPOT membrane
For B5, the Kd (GST-Abp1 SH3 domain [1]) was 0.92 µM, the Kd (RVS167 SH3 domain) was 13 µM and the Kd (GST-Abp1 SH3 domain [2]) was 0.9 µM.

B6: Prk1 peptide(s) on the Abp1 SPOT membrane (peptide)
chain: GKDKSRPPRPPPKP
modifications: also: bound to cellulose membrane (SPOT)
In the case of B6, the Kd (GST-Abp1 SH3 domain [1]) is reported as 22 µM, the Kd (RVS167 SH3 domain) is reported as over 100 µM and the Kd (GST-Abp1 SH3 domain [2]) is reported as 22 µM.

B7: YFR024C SH3 domain (protein)
chain: TSSPKAVALYSFAGEESGDLPFRKGDVITILKKSDSQNDWWTGRVNGREGIFPANYVELV
Binder B7 has a Kd (YPR171 peptide) of 4.8 µM.

B8: Scp1 peptide(s) on the Abp1 SPOT membrane (peptide)
chain: LSTKKPRPPVKSKP
modifications: also: bound to cellulose membrane
In the case of B8, the Kd (GST-Abp1 SH3 domain [1]) is reported as 14 µM and the Kd (GST-Abp1 SH3 domain [2]) is reported as 14 µM.

— article PMC314469 (2004)
